Laboratory results published in article PMC6205457.

Columns and labels:
[1] = molecular target: MCL1 (UniProt P97287); test: SPR
[2] = molecular target: biotinylated mouse MCL1 (amino acids 152-308) (mouse) (UniProt P97287); test: SPR

Kd [1] | Kd [2] | Substance
< 0.16 nM |  | rPUMA (redesigned PUMA peptide: A139tBu, Q140Y, A144Cha, A145G, Y152Bzt)
4 nM |  | PUMA 27-aa wild-type peptide (pseudo wild-type, M144A)
 | 7 nM | PUMA27 I137tBu (peptide)
